Measurements taken from article PMC4176424, “Thiolation-enhanced substrate recognition by D-alanyl carrier protein ligase DltA from Bacillus cereus” (F1000Research, 2014).

How the values were obtained:
[1] = biological target: BcDltA (D-alanyl carrier protein ligase DltA) (Bacillus cereus, UniProt Q81G39); assay: biochemical
[2] = test system: C[C@@H](N)C(=O)O; assay: purified protein; details: 5 mM ATP, 5 mM CoA, 10 mM MgCl2, 0.1 M KCl, pH 7.2
From the text: pyrophosphate release, pyrophosphatase-coupled malachite green assay on BcDltA (D-alanyl carrier protein ligase DltA)

Sequence of BcDltA (D-alanyl carrier protein ligase DltA) (Q81G39 whole entry): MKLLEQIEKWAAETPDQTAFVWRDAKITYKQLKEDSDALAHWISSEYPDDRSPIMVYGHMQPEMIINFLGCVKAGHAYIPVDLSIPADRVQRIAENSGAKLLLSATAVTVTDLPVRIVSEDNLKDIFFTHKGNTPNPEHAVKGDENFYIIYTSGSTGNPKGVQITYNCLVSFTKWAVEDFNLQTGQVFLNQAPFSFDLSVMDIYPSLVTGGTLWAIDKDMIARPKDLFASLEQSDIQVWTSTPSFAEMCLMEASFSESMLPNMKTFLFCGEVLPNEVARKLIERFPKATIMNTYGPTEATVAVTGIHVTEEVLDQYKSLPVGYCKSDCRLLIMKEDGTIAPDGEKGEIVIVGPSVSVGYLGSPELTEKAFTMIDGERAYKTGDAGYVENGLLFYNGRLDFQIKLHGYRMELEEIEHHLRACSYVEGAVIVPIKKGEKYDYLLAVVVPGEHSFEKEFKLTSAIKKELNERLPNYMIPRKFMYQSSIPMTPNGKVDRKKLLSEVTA

| Molecule | Kd [1] | Km [2] | kcat [2] | kcat/Km [2] |
| --- | --- | --- | --- | --- |
| Nc1ncnc2c1ncn2[C@@H]1O[C@H](COP(=O)(O)OP(=O)(O)OP(=O)(O)O)[C@@H](O)[C@H]1O [ATP] | 430 µM |  |  |  |
| BcDltA (D-alanyl carrier protein ligase DltA) (Bacillus cereus ATCC 14579) |  | 0.03 ± 0.01 × 10^-3 M | 0.182 ± 0.00333 s⁻¹ | 6050 ± 1670 M⁻¹ s⁻¹ |
